We go through 6 molecules from patent US20240425606A1, “ANTI-IL-11RA ANTIBODIES” (Lassen Therapeutics 1, Inc., priority 2021, published 2024).

The subject of experiment [1] is type VI collagen formation (PRO-C6) in fibrotic human PCLS. The experiment is described as follows: Fibrotic human precision-cut lung slice (PCLS) model, PRO-C6 biomarker of ECM remodeling. The experiment is classed as cell-based. The note with it: 48 hours; for effects on ECM remodeling: fibrotic human PCLS; for median levels of PRO-C6 compared to the no treatment (media) control: pooled data all donors and regions, nintedanib 1 μM, isotype control 30 μg/mL. Here is the method:
Studies were performed to evaluate the effect of the mAb5 antibody on biomarkers reflecting ECM remodeling in a fibrotic human precision-cut lung slice (PCLS) model. The anti-fibrotic effect was investigated at three different concentrations in human ex vivo lung tissue slices prepared from pulmonary fibrosis patients.
Tissue slices were prepared from the subpleural and central region of the fibrotic lung from two human end-stage donors with pulmonary fibrosis (IPF and secondary fibrosis) (see, for example, Hess et al., Toxicol In Vitro. 32:347-61, 2016). For both donors, lung tissue samples from two different regional areas (subpleural and central) were used to generate tissue cores used for PCLS. Adjacent cores were used to achieve serial PCLS for the analysis of one treatment as compared to medium treated PCLS from the same cores. This enables the comparison of densely packed fibrotic areas with fibrotic foci with less affected areas. To ensure the fibrotic status, clinical/demographic information for each patient is provided.
Each treatment was tested with three replicates for each lung region and for each donor.
Preparation and incubation of precision-cut lung slices. Lung lobes were canuled and filled with 37° C. warm 2% low-melting agarose/medium solution. Filled lobes were cooled on ice to polymerise agarose. Tissue cores with a diameter of 8 mm were prepared and cut into approximately 300 μm thick slices using a microtome (Krumdieck tissue slicer, Alabama Research and Development, Muniford, AL, USA or Vibratome OTS-5000, Science Services GmbH, Munich) in Earle's Balanced Salts Solution (EBSS). Tissue slices were incubated in Dulbecco's modified Eagle's medium/nutrient mixture F-12 Ham (DMEM) with L-glutamine and 15 mM HEPES without phenol red. Tissue slices were transferred into petri dishes and washed with DMEM for 2 hours. Medium was changed four times every 30 minutes in order to remove cell debris.
Two PCLS per well were left over night in 500 μL DMEM in 24-well plates for a final washing step. Next day, PCLS were treated with experimental treatments or controls (see Table E5) in 250 μl DMEM/F-12 culture medium for 48 hours under normal cell culture conditions (37° C., 5% CO2). Medium contained 100 units/mL penicillin and 100 μg/mL streptomycin and was not supplemented with fetal calf serum.
After incubation for 48 hours, supernatants were collected, proteinase inhibitor cocktail (0.2%) was added and samples were frozen to −80° C. Additionally, the two PCLS from each well were transferred to a 2 mL safe-lock tube, snap-frozen in liquid nitrogen immediately, and stored at −80° C. Samples from the three replicates for each condition were not pooled.
Extracellular matrix remodeling evaluation. Biomarkers that reflect ECM remodeling were assessed in supernatant by Nordic Bioscience using the following competitive ELISA: PRO-C6 (C-terminal of type VI collagen C5 domain released as type VI collagen is incorporated into the matrix; measured on mesoscale platform [hsPRO-C6]): Reflects type VI collagen formation. Type VI collagen is a beaded filament collagen mainly found in the interface between the interstitial matrix and the basement membrane.
Statistics. […] Pooled data are presented as percentage of the “no treatment” control, calculated for individual regions and donors. Statistical significant differences were evaluated on pooled data by Kruskal-Wallis with Dunn's multiple comparisons test, comparing to the “no treatment” control. […]

The target of experiment [2] is T1, hIL-1 IR (Homo sapiens, UniProt Q14626).
T1 sequence (Q14626 23-422): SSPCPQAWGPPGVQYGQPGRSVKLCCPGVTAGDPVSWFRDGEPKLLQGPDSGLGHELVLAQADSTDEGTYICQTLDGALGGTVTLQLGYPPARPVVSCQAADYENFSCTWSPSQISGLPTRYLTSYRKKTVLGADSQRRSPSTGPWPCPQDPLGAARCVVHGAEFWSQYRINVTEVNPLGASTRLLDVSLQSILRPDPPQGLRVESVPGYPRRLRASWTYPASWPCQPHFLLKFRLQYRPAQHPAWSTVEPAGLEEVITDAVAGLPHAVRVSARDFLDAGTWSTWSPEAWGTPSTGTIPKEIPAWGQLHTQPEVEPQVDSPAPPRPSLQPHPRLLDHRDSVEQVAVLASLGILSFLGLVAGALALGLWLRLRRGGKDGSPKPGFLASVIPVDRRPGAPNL
The experiment is described as follows: Alternate biolayer interferometry assay (AHC biosensors) ranking mAbs 16-32 against mAb5. Type of experiment: binding. The note with it: for ka: association 120 s; for kd: dissociation 1200 s; for qualitative assessment: compared to mAb5. An excerpt: A further series of antibodies were designed in which the residue at Kabat position 31 of the heavy chain was varied (mAbs 16-32). In this case an alternate biolayer interferometry assay was used to initially rank the antibodies compared to mAb5, the closest relative in sequence to mAbs 16-32. MAbs were loaded onto anti-human constant domain (AHC) biosensors (FortdBio) in 10× kinetics buffer consisting of PBS, 0.1% BSA, 0.02% Tween 20 for 120 s to achieve a spectral shift value of 0.8 to 1.2 nm. Association was carried out in the presence of 2-fold dilution series of hIL-1 IR and was allowed to proceed for 120 s. Dilution series started 10 nM. The dissociation in 10× kinetics buffer for 1200 s. Binding kinetic measurements were taken on an Octet RED96e instrument.
A general note: BLI is a label-free optical method that tracks binding on a fibre tip over time.

Experiment [3] addresses T2, hIL-11Rα (Homo sapiens, UniProt Q14626).
T2 sequence (Q14626 23-422): T1 sequence (Q14626 23-422)
The experiment is described as follows: Kinetic binding analysis by biolayer interferometry (protein G biosensors, Octet RED96e). Here is the method: Association was carried out in the presence of a 2-fold dilution series of hIL-11Rα and was allowed to proceed for 120 seconds; dissociation was measured for 300 to 1200 seconds.

For experiment [4], the system named is IL-11 signaling in STAT3 Reporter (Luciferase)—HEK293 cell line. Put plainly: Cell-based STAT3 reporter (luciferase) assay for inhibiting IL-11 signaling. Further details: species or system human. The note with it: compared with TS7 and 8E2. Here is the method:
Further testing of the lead mAbs was carried out using a cell-based reporter assay. IL-11 is reported to signal through the STAT3 and ERK pathways. Therefore, a STAT3 reporter cell line in which firefly luciferase gene expression is driven by STAT3 response elements located upstream of a minimal TATA promoter was selected to analyze mAb functional activity. In these cells, IL-11 can activate the endogenous STAT3 allowing it to bind to the STAT3 response elements, inducing transcription of the luciferase reporter gene and resulting in readily detectable luciferase expression. Antibodies to IL-11R which block IL-11 signaling should inhibit expression of IL-11 driven luciferase in these cells.
The STAT3 Reporter (Luciferase)—HEK293 cell line (BPS Bioscience, catalog #79800-P) was grown, passaged, and assayed as per manufacturer's protocols. Cells were added at 25,000 cells per well in a 96-well microtiter dish and incubated at 37° C. for 30-45 min. in 5% CO2 humidified air. Anti-IL-11R mAbs were added as a 3-fold dilution series in duplicate columns or rows, and plates were returned to the incubator for an additional 1 h at 37° C. after which 40 ng/mL IL-11 was added to each well to initiate the signal transduction cascade and luciferase production. Plates were incubated for 18-24 hours at 37° C. and luciferase was detected using a One-Step Luciferase Assay System (BPS Bioscience, cat. no. 60690-1) as per manufacturer's instructions.

Experiment [5] concerns the target T1, hIL-1 IR. The experiment is described as follows: Alternate biolayer interferometry assay (AHC biosensors) ranking mAbs 16-32 against mAb5. The experiment is classed as binding. The note with it: compared to mAb5.

Residue numbers refer to the chain shown, from its start. Names may count otherwise. “Also recorded” adds a separate entry of the source.

For `COC(=O)c1ccc2c(c1)NC(=O)/C2=C(\Nc1ccc(N(C)C(=O)CN2CCN(C)CC2)cc1)c1ccccc1` [nintedanib, Nintedanib, reference compound], in experiment [1], the “effects on ECM remodeling” value was “ECM remodeling could be reduced”. Further, in experiment [1] (mAb5 0.3, 3.0, 30 μg/mL), the “median levels of PRO-C6 compared to the no treatment (media) control” value is “decreased”.

B1: mAb5: anti-IL-11Rα antibody; VH SEQ ID NO: 201, VL SEQ ID NO: 202; human IgG4 (S228P), kappa light chain (antibody, V domains shown)
VH: EVQLLESGGGLVQPGGSLRLSCAASGFTFSWYSMTWVRQAPGKGLEWVSSIVPYGDLTQYADSVKGRFTISRDNSKNTLYLQMNSLRAEDTAVYYCAKGPGWGSFDLWGRGTLVTVSS
VL: DIQMTQSPSSLSASVGDRVTITCQASQDINNYLNWYQQKPGKAPKLLIYDASNLQTGVPSRFSGSGSGTDFTFTISSLQPEDIATYYCQQHESQSPTFGPGTKVDIK
modifications: human IgG4 S228P and kappa constant regions; mAb5 VH Chain; mAb5 VL Chain
notes: anti-IL-11Rα antibody; human IgG4 (S228P), kappa light chain
Consider B1, for which, in experiment [2], the ka came out at 490000 M⁻¹ s⁻¹ and the kd amounted to 2.5e-05 s⁻¹. In experiment [3] (beyond the ability of the instrument to determine an accurate off-rate (kd)), the “binding affinity (in words)” value is on record as “very high binding affinity”. The ka in experiment [3] (protein G biosensors, association 120 seconds) was determined as 63700 M⁻¹ s⁻¹. Also, in experiment [3] (protein G biosensors, dissociation 300 to 1200 seconds), the kd is less than 1e-07 s⁻¹. For the same molecule, in experiment [1], the “effects on ECM remodeling” value is “better effects on ECM remodeling relative to the approved therapy nintedanib”. In addition, in experiment [1] (mAb5 0.3, 3.0, 30 μg/mL), the “dose dependence of PRO-C6 reduction” value is recorded as “dose-dependent manner; also recorded: dose-related reductions” and the “median levels of PRO-C6 compared to the no treatment (media) control” value was “decreased”. Also, the “relative potency at inhibiting IL-11 signaling (in words)” value in experiment [4] was “more potent at inhibiting IL-11 signaling than either of TS7 or 8E2”.

B2: mAb23: anti-IL-11Rα antibody; VH SEQ ID NO: 237, VL SEQ ID NO: 238; heavy chain Kabat position 31 variant of mAb5 (antibody, V domains shown)
VH: B1 VH with W31K
VL: B1 VL
modifications: mAb23 VH Chain; mAb23 VL Chain
notes: anti-IL-11Rα antibody; heavy chain Kabat position 31 variant of mAb5
For the molecule B2, in experiment [5], the “potency by more detailed kinetic measurements (in words)” value is recorded as “further improved potency”. Besides, in experiment [2], the ka turned out to be 720000 M⁻¹ s⁻¹, the qualitative assessment result was “improved/” and the kd entry is recorded as “off-scale”.

B3: mAb31: anti-IL-11Rα antibody; VH SEQ ID NO: 253, VL SEQ ID NO: 254; heavy chain Kabat position 31 variant of mAb5 (antibody, V domains shown)
VH: B1 VH with W31V
VL: B1 VL
modifications: mAb31 VH Chain; mAb31 VL Chain
notes: as for B2
As for B3, the “potency by more detailed kinetic measurements (in words)” value in experiment [5] was “further improved potency”. In addition, in experiment [2], the ka came out at 690000 M⁻¹ s⁻¹, the qualitative assessment entry is on record as “improved/” and the kd entry was “off-scale”.

B4: mAb29: anti-IL-11Rα antibody; VH SEQ ID NO: 249, VL SEQ ID NO: 250; heavy chain Kabat position 31 variant of mAb5 (antibody, V domains shown)
VH: B1 VH with W31S
VL: B1 VL
modifications: mAb29 VH Chain; mAb29 VL Chain
notes: as for B2
For the molecule B4, the “potency by more detailed kinetic measurements (in words)” value in experiment [5] is listed as “further improved potency”. For the same molecule, in experiment [2], the ka is 610000 M⁻¹ s⁻¹, the qualitative assessment entry was “improved/” and the kd was determined as 1.8e-05 s⁻¹.

B5: mAb21: anti-IL-11Rα antibody; VH SEQ ID NO: 233, VL SEQ ID NO: 234; heavy chain Kabat position 31 variant of mAb5 (antibody, V domains shown)
VH: B1 VH with W31H
VL: B1 VL
modifications: mAb21 VH Chain; mAb21 VL Chain
notes: as for B2
Take B5: in experiment [5], the “potency by more detailed kinetic measurements (in words)” value is “further improved potency”. In experiment [2], the ka worked out at 750000 M⁻¹ s⁻¹, the qualitative assessment result was “improved/” and the kd result was “off-scale”.
